Results reported in a protein production outcome set (Wang et al. 2014).

Test: label from the status in PepcDB records

Sequence | protein production
MIEFITPRTFLFSTQTVVFSVLLFVFYIFYRTFSRKYVKYWLMSIGALNFSYLIKSFVPYSSRNFSSDSWQILAELLLQIFQYSFLIFLIFGVYIAKNNKELSKEILSGGIGAIIILSVISTMFFAFDPSQAFNHFYLTISLPSFIFGCTFLSLACYLLFDKKSYFSSQVLMYFSAIFGLRYLMHSFISIVALTEPWFRQLELFLLYFDVAAHSILGFTLLIWMQGAERFATLSAISRAQYLGKHDSLTGALNREQVMAKLSDKMQELTHANKINKNQMKLAVFLIDIKQFKFINDTYGLKVGDFILGEIASRLNHSVFIPQAVGRLSGDSFMFVIEFEQISHVDRAVNHIHELIERCFRYEQQEITIQGSVGYCFYPDDADKSEDLLQKSNLALHHAETNNIPSVAFEEGMQAQGRHLVLMEKQLRSAIANDEFVLYYQPQLNLFTNKLEGVEALVRWQHPEKGLLSPGDFLTELETLGMHNEFDNYILVKACQASERWFKLYQRRVAIAVNITAVEFQNEQLVTNIQMLLHKYGIPSKYIELEITENVVMTDITRAMDSIVKLQSMGIKVSIDDFGTGYSSLAYLRDLPIDKIKIDRSFINEVAINDSDLTIVKSMVDLSHGLGKRVLAEGVETIEQLNLLRHLGCDAVQGYFISKPLPESKLVRYLKKK | failed
MIEIRKASTHDATAIQTLLTQLGYPQSLEFIEKKIRLFESDERQFIFVADIDHKLAGFLSLTMIPQIALEGDFARIAYVCVDQQFRGKRIGQTLVAYAEQIAKSWGCNRMELHSGDHRKQAHEFYLGQNYEDAPKYFRKFL | failed
MIEKILLAVSGLGHAEEMLKTLKEVPSIQSAKVTVLHVVPSQATSSAMTDKWEEGGKILANAIQALNLDPSQVSSILRQGDPKDVVCQVADEIDADLIIMGSRGLKRLQSILSNSVSQYVFQLSSRPMLLVKDDIYVKRIKRVMVAMDNSDAAKHCLNLALFLLRGIVGSQLILANVTTDLRGKTSEVSEISPDKNPVLASAVAEAQRYGIQTRCFTSSGKPGEEICRLADELNVDLLLLGSPDRRPSVAKNFVDIDRLIGASLSDYVRVNASCPVLLARTTG | failed
MIEKVYEFKRDAKTKVVEKLVNTEHVQINHIVLPRGEQMPKHYSNSYVHLIIIKGEMTLTLEDQEPHNYKEGNIVYVPFNVKMLIQNINSDILEFFVVKAPHPKKLNAPEDPIKCE | not failed
MIELDYLTIAFGGAIGAVLRYLVSRTINSLLPFSYIPLGTIIVNSVGSFFLSFLMFAAIEKVPLSKEAILFFGTGLLGAFTTFSTFTYETLSLIEESPARGVAYALANLLFAFTCAYFGMILGRGKV | failed
MIENEFGEVSVDDQLIGDRATQIKTLTNGCICCSRSNELEDALLDLLDNLDKGNIQFDRLVIECTGMADPGPIIQTFFSHEVLCQRYLLDGVIALVDAVHADEQMNQFTIAQSQVGYADRILLTKTDVAGEAEKLHERLARINARAPVYTVTHGDIDLGLLFNTNGFMLEENVVSTKPRFHFIADKQNDISSIVVELDYPVDISEVSRVMENLLLESADKLLRYKGMLWIDGEPNRLLFQGVQRLYSADWDRPWGDEKPHSTMVFIGIQLPEEEIRAAFAGLRK | not failed
MIEPSKITVEQWLNRWLTDYAKPHLRQSTWESYETVLRLHVIPTLGSIPLKKLQPADIQRLYASKLESGLSPTRVRYIHVVLHEAMSQARESGLLLQNPTEAAKPPRHPKKKVQPLEHHHHHH | not failed
MIEQPYPSVADTDAAPPTAQGKIDQYFQISARGSTQRREVVAGITTFMAMVYAVFVVPGMLGKAGFDTSAVFVAVCLTTAFGSLLMGLWAKLPIAIGCAISLTAFMAFGLVLGQHLSPAVALGAVFLMGVVFTAISVTGVRTWILRNLPAGVAHGAGIGIGLFLLLIASNEVGLVIKNPGPGLPVSLGNITAFPVMMSILGLAAIFGLERRRVPGGILLVIVAISALGLVFDPSVKFTGIFALPTLSAPGHTSLIGAMDIRGALSAAVLPSVLALVMTAVFDATGTIRAVAGQANQLDATGRIHNGGRALTADSVSSIFSAFFGGAPAAAYIESTVGVAAGARTGLAAVTVGALFLAVMFFSPLAGLVPSYATAPALMYVGLLMLSSVSRLHMDDLVDALSGLVCAVFIVLTCNIVTGIMLGFCTLVIGRIVSGEWRKLNIGTVAIAVALAAFYAGGWAI | failed
MIESIQELLQKEAQAVLNIPVTDAYEKAVELIVEQIHRKKGKLVTSGMGKAGQIAMNIATTFCSTGIPSVFLHPSEAQHGDLGILQENDLLLLISNSGKTREIVELTQLAHNLNPGLKFIVITGNPDSPLASESDVCLSTGHPAEVCTLGMTPTTSTTVMTVIGDILVVQTMKRTEFTIEEYSKRHHGGYLGEKSRKLCVK | not failed
MIESVLLLVSGLPGSGKSTLARGMAEALAWPCLDKDDFLEALFDARGIGDAAWRRALSREADSRFLAALQAAPRAVACSWWRHPRGEGGSGTPIGGLARPGRLVLELHCRCPAELAAARFARRVRHPGHLDAQRDPGALSLQLRRAERLGPLGLGQCLILDASVQTDLSGALAWTRDALAAGALADPPRHPLEHHHHHH | failed
MIFALHIMLRFVPNIVPLSIINKKTMTRIGLLSDTHAFWDDKYLKYFENCDEIWHAGDIGSVEVARKLSAFRPFRAVYGNIDGQDIRRLYPQTNRFTVDGAEVLIKHIGGYPGNYDPSIRGSLLVKPPQLFISGHSHILKVKYDKTLDMLHINPGAAGISGFHKVRTLVRFCIDNGEFKDLEVIELADKL | failed
MIFENRLALSAMAGVNNAEFCRKQKASLVILGGFNADRRALEAAEKAVKRGRKEFLFGIDGIEGEIKKLGRRKFAVNVRSSSLEGYLNVAELVAEFEGIIEINAHCRQPEFVEIGCGEWLLFNHERLVEIVSKTSRIAPTFVKIRGGHKLDYEKIARKLFDAGCLAIHVDAMIPGGGCDFSLIERISRIGNVIGNNSFVDIESGERIIMAGAKMASAARAVLRDENFFEKMLRSPLLSQPVELSCGRFRLEHHHHHH | not failed
MIFNTLARYFLKRYLMTTIWFVLGVSSIIYLADFSETARRMSGLPGYSVPAALGLTALRLPLILQQTVPFIALFVGMTTLISLNRRYELVVTRAAGISAWQFILPFVLGAVFIGILSVMVLNPIAAWGQNKSLAMEAGLRNDAGGGRQQEIIPWMRQSSGGKDTIIGAKSFEDNGTMLLDVVLIDVDKDGNIVSRKDAKSAKLEDGYWLLNGVSETRAGHVPVRQESMQISTNLRREFVQERMTQTETVAFFDLSHKIEVAKSFGLSSKALETQYHFLLSTPLLLVAMTLIAATVSLKFSRFAQSRSVILGGIVSGFVLYVVTVLVRAFGSGGVVPPTVAVWVPVIVALALGATILLHQEDG | failed
MIFRLGDFRFPDDPARLYPDTPDRPWVLEIGFGDGRFWPHYARTFPEPPNYLGVEISGVSLLKAHRRLKDAGLTNAVLTKLPAEVLVAQVIPHGSLDAIIVNFPDPWPKAGHEDHRLLRVPFFQVAASRLKPGGAALLTTDHDEYFEFACAQAEASGVMRVERVGPPPAALETKYAQKWRDLGLGVNHARFVPTRHDPVPNGTFAPYSEEDPAVPHAVLTLPADFSPQHFDKLTVRGKTWTVVLLDLYATLRRGGWVALAHVVEGDLTQEVLVGITEREDGTHLVRLAKFGGPIITPGVKAAVGAVTEWLEGQGAVVKHRGY | failed
MIFRQLFDPQSSTYTYLLADPASREALLIDPVFEQVRRDAALLDELGLRLVATVDTHVHADHVTGAWLLKQRTGSTIAISAASGAQGADRYLNDGDRCAFGARYLTVRATPGHTSGCISLVLDDESMAFTGDCLLIRGTGRTDFQQGDPRALYRAVHARLFTLPAACLLYPAHDYRGLTVTSVGEERRFNPRLGGDLSEDDFAGYMRNLGLAHPRQIDVAVPANLQCGVAANAPDALAAADWAPLVYTFAGFWEIDPQWLEDHLPAVQVVDVREPDEFAGPLGHLPGATPIPLGELAARTGELARDRPIVTVCRAGGRSAQATVILLKAGFDAVANLGGGMLRWRGEGRVVMDGRS | failed
MIFSFIFKVAVISSSGALAPGPLTAATAAIGVKRGWKGGFWVSVGHAAVELPLVILIATGVAVVLTHSSALSLLSVAGGVMLLSFAFLTAKSAFSKTEEKAESSANPFSTGVALSALNPFFIAWWAGVGAVLITEAISLWGYAGIAVLYLSHVWLDFAWLILLAHLTSMAIFSAKAYRALLVALAALVFLFGVDFLHYGLFSKHLLPI | failed
MIFYFSGTGNSKWIAEQIAKAQNEVLVFMPNAIRDGIEEFVLADDEKVGFVFPVYSWGPPLSVLRFLDWITLSNYHSQYVFFVCSCGDDTGLTEELFRRALSRKGMECNAGFSVAMPNNYVLLPGFDVDKKELEKKKLDEAVGRVEEINDSITGKKIGFHCNEGSFPWFKTKVLNPLFNRFMTSAKPFYATDDCIGCKRCERICPVGNVVMIGWRPVWGMDCTSCLACYHVCPKHAVQYGRRTKRKGQYLNPNVSISHEAAAQLEHHHHHH | not failed
MIGEQPGDIFRRGEILNHTYEIEGVLGRGGTGEIYRARNLISGRIVAVKALNRRFSGNDDYIGLMRREEQLRDVIDDAVVRYTECSRSDGGHVFLVMDHIEGPSLAQAMEAGRIEARDLLIVAHRVAEGLRAAHRHGIVHRDLSPDNIILRGGAPERATIIDFGIAKDLSAGAQTIVGNDFAGKYEYAAPEQIDGRAEPRSDLYALGATLLAAFRGEAPFAGATPGEIVRRKGRPLDTEGVPEPLRGLIDRLAAPEAERRPASAAAVVEELDRLLRPQAEPDRRRRVWPALAALLLLAVLAVGGWIALRPPLAEPYRLTASAADLAGEAPDRAAAARIAAAYARAAGHESHGLRIARGAPEGWADAAAEVLALAATLDDWRLALNGAEAALSGRAPDARSAAMVETRFRDWASRRGFEPRLQIEVVPPPLDPQAVSALLQRHADCGPLSEGGTEGVITGAVATAETAAALERALADLRGDRPLHLAITVLNPAICAVRQALPDRPAQGLSIWLGEAATGAPNLAGIYGPGDYPLVEIRLPAGMSGLALWVGLVDVTGSVLNLLPNVYSDESRIDRLGTVANGVRTIRVMPLEFQVAGGTQLFALQVEARDFGRSELVAVVSRGDLFALRRPKDESVASFTEALSALRRDDPDRLVAVTRRLLESRPSR | failed
MIGFIGSVFSPWYRWSGRKEPQNHCCLNVATYGPGGRFTMTDRGRAALRQSPDTLTVGPSRMHWTGTQLIVEVNEISSPPLVSPVKGRIVLTPTGITDVEVTLKDDGSHIWRPFAPTARIEVDLTQGHRWHGHGYFDANFGTAALEADFRFWTWGRYPVADGAACFYDATRRDGSRLELGLHVAADGRARLIQPPPEARFARSRWLVERHTPADPGTRPRQVMSMLDAPFYSRAMVETTVFGQKTVGVHEALDLRRFRSPLLMPMLAVRVPRRP | failed
